This note sets out measurements from PMC11898728.

For this assay, the target named is RhoA (human) (UniProt P61586).
Chain of UniProt P61586 (P61586 whole entry): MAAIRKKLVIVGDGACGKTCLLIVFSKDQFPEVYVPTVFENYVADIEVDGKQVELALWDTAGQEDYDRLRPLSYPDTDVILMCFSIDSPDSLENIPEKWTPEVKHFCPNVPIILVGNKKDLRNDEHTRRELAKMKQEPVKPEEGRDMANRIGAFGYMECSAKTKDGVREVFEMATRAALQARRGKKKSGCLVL

Consider “VopX (amino acids 26-252), purified (domain or fragment)”, for which the average exchange rate of RhoA in the presence of VopX (in vitro RhoGEF exchange assay with N-MAR-GTP; 1.5 µM GTPase, 0.75 µM N-MAR-GTP, 0.5 µM VopX) (µmol N-MAR-GTP/μmol GTPase/s) is 167.
